Substitutions are numbered along the chain they refer to.

What all share (assay): cell-based or functional assay
Test [1] deals with human CCR8 (P51685_CCR8_HUMAN) (human, UniProt P51685 1-355).
Test [2] has as its target human CCR8 (human, UniProt P51685 1-355).
Test [3] has as its target T1, human CCR8 (human, UniProt P51685 1-355). The source holds these as a separate data set.
In test [4] the target is T1, human CCR8. This is another data set of the same source.
Test [5] has as its target T1, human CCR8. This is another data set of the same source.
Test [6] has as its target T1, human CCR8. This is another data set of the same source.
In test [7] the target is T1, human CCR8. The source holds these as a separate data set.

B1: TPP-17577 (497A-M178-K09-1-hIgG1Lambda), WT (antibody, V domains shown)
VH: EVQLLESGGGLLQPGGSLRLSCAASGFTFSNAWMSWVRQAPGKGLEWVAVISYDGRNKYSADSVKGRFTISRDNSKNTLYLQMNSLRAEDTAVYYCARGLPYGYWGQGTLVTVSS
VL: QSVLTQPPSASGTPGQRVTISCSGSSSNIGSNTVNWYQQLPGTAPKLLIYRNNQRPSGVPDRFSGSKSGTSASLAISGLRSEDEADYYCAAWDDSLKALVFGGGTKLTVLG
B1: in test [1], the “ADCC Max Response, activated Tregs + NK92v, Donor 1213” value (“ADCC Max Response … Donor 1213” for short) was found to be 10% and the “ADCC Max Response, activated Tregs + NK92v, Donor 1730” value (“ADCC Max Response … Donor 1730” for short) stood at 13%.

B2: TPP-17577 (497A-M178-K09-1-hIgG1Lambda), afucosylated (antibody, V domains shown)
VH: B1 VH
VL: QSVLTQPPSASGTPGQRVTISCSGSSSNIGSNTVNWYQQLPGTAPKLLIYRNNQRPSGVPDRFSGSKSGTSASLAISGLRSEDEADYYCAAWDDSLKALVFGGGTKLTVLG
modifications: afucosylated N-glycan at N297
As for B2, in test [1], the “ADCC EC50, activated Tregs + NK92v, Donor 1213” value (“ADCC EC50 … Donor 1213” for short) turned out to be 1.85 nM; the “ADCC EC50, activated Tregs + NK92v, Donor 1730” value (from here on “ADCC EC50 … Donor 1730”) was 4.57 nM; the “ADCC Max Response … Donor 1213” value was determined as 41%; the “ADCC Max Response … Donor 1730” value was 40%.

B3: TPP-17577 (antibody, human IgG1, lambda, V domains shown)
VH: B1 VH
VL: not shown
As to B3, the “Ca flux assay IC50 (nM), block of signaling induced by CCL1 at 80 ng/ml; CHO cells expressing human CCR8” value with human CCR8 [2] stood at 93.8 nM.

B4: TPP-18205 (antibody, human IgG1, lambda, V domains shown)
VH: EVQLLESGGGLVQPGGSLRLSCAASGFTFSSYAMSWVRQAPGKGLEWVSGIRWNSGSKGYAGSVKGRFTISRDNSKNTLYLQMNSLRAEDTAVYYCVRSGNYYVGYHGMDVWGQGTLVTVSS
VL: QSVLTQPPSASGTPGQRVTISCSGGNSNIGTYFVSWYQQLPGTAPKLLIYTNNQRPSGVPDRFSGSKSGTSASLAISGLRSEDEADYYCETWDSNTRVFGGGTKLTVLG
As to B4, the “Ca flux assay IC50 (nM), block of signaling induced by CCL1 at 80 ng/ml; CHO cells expressing human CCR8” value with human CCR8 [2] was 1.6 nM.

B5: TPP-18205 (004-F10_497A-M296-L12+497A-M326-O09-hIgG1Lambda), afucosylated (antibody, V domains shown)
VH: B4 VH
VL: B4 VL
modifications: afucosylated N-glycan at N297
For the molecule B5, in test [1], the “ADCC EC50 … Donor 1213” value is 0.23 nM; the “ADCC EC50 … Donor 1730” value came to 1.05 nM; the “ADCC Max Response … Donor 1213” value turned out to be 52%; the “ADCC Max Response … Donor 1730” value amounted to 58%.

B6: TPP-18205 (004-F10_497A-M296-L12+497A-M326-O09-hIgG1Lambda), WT (antibody, V domains shown)
VH: B4 VH
VL: B4 VL
Take B6: in test [1], the “ADCC EC50 … Donor 1213” value was about 0.00558 nM; the “ADCC EC50 … Donor 1730” value is about 0.018 nM; the “ADCC Max Response … Donor 1213” value came to 20%; the “ADCC Max Response … Donor 1730” value came out at 24%.

B7: TPP-21045 (17578-gl79-hIgG1-wt-Lambda), afucosylated (antibody, V domains shown)
VH: EVQLLESGGGLVQPGGSLRLSCAASGFTFSSAWMSWVRQAPGKGLEWVSGISWSGGSTGYALSVKGRFTISRDNSKNTLYLQMNSLRAEDTAVYYCARTYSGHYGPFFDYWGQGTLVTVSS
VL: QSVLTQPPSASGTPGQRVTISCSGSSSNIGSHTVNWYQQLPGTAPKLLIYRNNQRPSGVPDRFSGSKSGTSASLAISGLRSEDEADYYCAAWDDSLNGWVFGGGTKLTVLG
modifications: afucosylated (no fucose on the N-glycan at N297)
As for B7, in the test with human CCR8 [3], the “ADCP EC50 (pM); activated human Tregs donor 1212 + M2c macrophages” value came to 1220 pM and the “ADCP Max Response (%); activated human Tregs donor 1212 + M2c macrophages” value is 30%. Also, in the test with human CCR8 [4], the “ADCP EC50 (pM); activated human Tregs donor 1212 + M2c donor 4” value turned out to be 17.1 pM and the “ADCP Max Response (%); activated human Tregs donor 1212 + M2c donor 4” value was 23%. In the test with human CCR8 [5], the “ADCP EC50 (pM); activated human Tregs donor 1163 + M2c donor 2” value came out at 52.9 pM and the “ADCP Max Response (%); activated human Tregs donor 1163 + M2c donor 2” value worked out at 28%. Moreover, in the test with human CCR8 [6], the “ADCP EC50 (pM); activated human Tregs donor 1163 + M2c donor 1” value came to 30.1 pM and the “ADCP Max Response (%); activated human Tregs donor 1163 + M2c donor 1” value turned out to be 28%. Moreover, in the test with human CCR8 [7], the “ADCP EC50 (pM); activated human Tregs donor 1212 + M2c donor 3” value worked out at 9.2 pM and the “ADCP Max Response (%); activated human Tregs donor 1212 + M2c donor 3” value came out at 13%.

B8: TPP-19546 (17578-gl33-hIgG1Lambda), wild type (antibody, V domains shown)
VH: B7 VH with L62D, F107Y
VL: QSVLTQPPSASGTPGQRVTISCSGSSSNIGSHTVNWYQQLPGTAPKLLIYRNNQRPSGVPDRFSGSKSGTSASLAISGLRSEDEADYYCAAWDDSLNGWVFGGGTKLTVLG
On to B8, for which, in the test with human CCR8 [5], the “ADCP EC50 (pM); activated human Tregs donor 1163 + M2c donor 2” value is about 1.69e+07 pM and the “ADCP Max Response (%); activated human Tregs donor 1163 + M2c donor 2” value came to 18%. The “ADCP Max Response (%); activated human Tregs donor 1163 + M2c donor 1” value with human CCR8 [6] was determined as 14%.

B9: TPP-17578 (497A-M128-B10-1-hIgG1Lambda), afucosylated (antibody, V domains shown)
VH: B7 VH with S31N, S52N, S54N, L62D, A97V, F107Y, Y110N
VL: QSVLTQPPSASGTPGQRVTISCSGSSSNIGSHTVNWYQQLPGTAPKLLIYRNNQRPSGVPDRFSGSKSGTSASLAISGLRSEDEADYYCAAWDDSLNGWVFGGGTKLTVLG
modifications: afucosylated N-glycan at N297
Regarding B9, in test [1], the “ADCC EC50 … Donor 1213” value amounted to 9.2 nM; the “ADCC EC50 … Donor 1730” value turned out to be 19 nM; the “ADCC Max Response … Donor 1213” value amounted to 25%; the “ADCC Max Response … Donor 1730” value worked out at 38%.

The values are drawn from patent publication US20240376218A1 (published 2024).
